From doi:10.1101/2021.05.25.445488 (bioRxiv, 2021)

T1: GST-TULP3 full length (human, UniProt O75386-1 1-442)
T1 sequence (looked up): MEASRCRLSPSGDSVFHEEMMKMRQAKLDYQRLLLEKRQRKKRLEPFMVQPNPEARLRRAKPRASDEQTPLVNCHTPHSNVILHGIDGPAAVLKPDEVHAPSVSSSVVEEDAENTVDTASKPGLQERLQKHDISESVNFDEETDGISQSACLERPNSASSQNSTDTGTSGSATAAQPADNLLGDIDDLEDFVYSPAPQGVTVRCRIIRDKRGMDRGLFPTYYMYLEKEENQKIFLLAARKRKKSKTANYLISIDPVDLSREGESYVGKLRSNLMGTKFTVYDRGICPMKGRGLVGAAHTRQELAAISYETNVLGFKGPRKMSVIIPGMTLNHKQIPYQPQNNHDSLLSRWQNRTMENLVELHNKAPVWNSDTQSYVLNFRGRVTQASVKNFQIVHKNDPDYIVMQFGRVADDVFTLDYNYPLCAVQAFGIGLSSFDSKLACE

B1: GFP-ARL13B full length, insect cell purified (natural protein)
chain: not shown
B2: GFP-ARL13B N-terminus (1-298 aa), insect cell purified (domain or fragment, human, UniProt Q3SXY8-1 1-298, looked up)
chain: MFSLMASCCGWFKRWREPVRKVTLLMVGLDNAGKTATAKGIQGEYPEDVAPTVGFSKINLRQGKFEVTIFDLGGGIRIRGIWKNYYAESYGVIFVVDSSDEERMEETKEAMSEMLRHPRISGKPILVLANKQDKEGALGEADVIECLSLEKLVNEHKCLCQIEPCSAISGYGKKIDKSIKKGLYWLLHVIARDFDALNERIQKETTEQRALEEQEKQERAERVRKLREERKQNEQEQAELDGTSGLAELDPEPTNPFQPIASVIIENEGKLEREKKNQKMEKDSDGCHLKHKMEHEQI

Molecular target: T1, GST-TULP3 full length
Assay: pull-down

Row | Binder | binding result
1 | B1 | binds
2 | B2 | binds
